Measured values from patent US20260049134A1 (UNIVERSITY OF FLORIDA RESEARCH FOUNDATION, published 2026).
Positions count from the first letter of the chain named. Names may count otherwise.

T1: GARS, endogenous in H929 multiple myeloma cells (human, UniProt P41250 37-739, limits assumed)
T1 construct: Native protein pulled down from H929 lysates; also called Glycyl-tRNA synthetase; GlyRS
T1 sequence: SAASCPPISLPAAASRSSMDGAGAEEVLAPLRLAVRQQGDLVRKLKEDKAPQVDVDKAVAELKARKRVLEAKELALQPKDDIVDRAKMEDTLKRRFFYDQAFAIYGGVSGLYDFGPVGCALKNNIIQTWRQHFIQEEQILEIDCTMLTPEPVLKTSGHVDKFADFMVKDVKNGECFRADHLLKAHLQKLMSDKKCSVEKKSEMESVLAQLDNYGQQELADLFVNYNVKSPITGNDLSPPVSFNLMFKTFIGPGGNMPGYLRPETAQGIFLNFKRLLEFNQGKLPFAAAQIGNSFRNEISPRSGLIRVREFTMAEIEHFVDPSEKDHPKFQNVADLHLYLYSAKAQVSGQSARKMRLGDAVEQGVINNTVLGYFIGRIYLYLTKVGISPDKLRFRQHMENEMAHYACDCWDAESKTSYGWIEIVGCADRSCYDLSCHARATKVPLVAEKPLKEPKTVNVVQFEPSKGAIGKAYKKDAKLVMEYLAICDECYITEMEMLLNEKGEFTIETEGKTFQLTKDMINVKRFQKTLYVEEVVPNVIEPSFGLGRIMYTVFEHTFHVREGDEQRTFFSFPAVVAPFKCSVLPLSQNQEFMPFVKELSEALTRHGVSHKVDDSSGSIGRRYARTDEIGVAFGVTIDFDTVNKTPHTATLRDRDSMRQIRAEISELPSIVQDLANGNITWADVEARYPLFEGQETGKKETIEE

T2: SELL (L-Selectin)
T2 construct: coated protein in the ELISA; also called SELL-Fc-His (R&D Systems)
T2 chain: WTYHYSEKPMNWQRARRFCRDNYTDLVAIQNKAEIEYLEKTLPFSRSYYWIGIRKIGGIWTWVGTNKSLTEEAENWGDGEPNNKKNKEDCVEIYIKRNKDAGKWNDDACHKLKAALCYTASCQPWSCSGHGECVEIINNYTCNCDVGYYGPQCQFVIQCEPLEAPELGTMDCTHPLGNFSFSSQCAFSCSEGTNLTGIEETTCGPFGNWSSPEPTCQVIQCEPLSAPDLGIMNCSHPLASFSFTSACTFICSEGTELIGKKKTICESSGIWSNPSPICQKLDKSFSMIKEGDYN

T3: CADM1, endogenous in H929 multiple myeloma cells (human, UniProt Q9BY67 45-442)
T3 construct: Native protein on H929 cells (flow cytometry, siRNA knockdown) and in H929 lysates (IP/MS); RPMI-8226 cells were used for sorting with HW-97; also called IGSF4A
T3 sequence: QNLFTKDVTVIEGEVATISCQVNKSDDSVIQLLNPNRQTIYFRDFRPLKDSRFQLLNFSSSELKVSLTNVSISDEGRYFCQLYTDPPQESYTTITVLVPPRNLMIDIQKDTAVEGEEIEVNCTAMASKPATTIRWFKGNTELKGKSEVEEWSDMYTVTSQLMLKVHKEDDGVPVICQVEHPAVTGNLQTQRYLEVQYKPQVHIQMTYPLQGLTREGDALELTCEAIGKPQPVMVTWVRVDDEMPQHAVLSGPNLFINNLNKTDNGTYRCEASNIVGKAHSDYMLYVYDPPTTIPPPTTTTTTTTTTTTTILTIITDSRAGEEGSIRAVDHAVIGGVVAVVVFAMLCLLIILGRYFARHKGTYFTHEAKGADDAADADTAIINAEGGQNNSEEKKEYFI

B1: HW-16 chimeric rabbit-human IgG1 LA/LA/PG (antibody, V domains shown)
VH: QSLEESGGRLVTPGTPLTLTCTASGFSLSSYAMSWVRQAPGKGLEWIGTMPTGGGTYYASWAKGRFTISKTSTTVDLQITSPTTEDTATYFCAKHWNIWGPGTLVTISS
VL: DIVLTQTPSSTSTAVGDTVTINCRASQSIGRNLAWFQQKPGQPPKLLIYRASNLASGVPSRFKGSGSRTQFTLTISGVQREDAATYYCLGSYSSSDTAFGGGTELEILR
notes: Fc-silenced (L234A/L235A/P329G) IgG1, kappa; Alexa Fluor 647-labeled in single-step flow cytometry; Cluster C-45
B2: HW-81 chimeric rabbit-human IgG1 LA/LA/PG (antibody, V domains shown)
VH: QKQLVESGGGLVTPGGTLTLTCTVSGFSLSSNGVSWVRQAPGKGLEYIGLIRSIGSTYYATWAKGRFTISKTSTTVDLKITSPTTEDTATYFCARGGYRNGFKLWGPGTLVTVSS
VL: QPVLTQSPSVSAALGASAKLTCTLSSAHKTYYIEWYQQQHPGKAPRYLMQLQSDGSYTKGTGVPDRFSGSSSGADRYLIISSVQAEDEADYICGVIDSAVYVFGGGTQLTVTG
notes: Fc-silenced (L234A/L235A/P329G) IgG1, lambda; Alexa Fluor 647-labeled in single-step flow cytometry; Cluster C-45
B3: HW-8 chimeric rabbit-human IgG1 LA/LA/PG (antibody, V domains shown)
VH: QSLEESGGRLVTPGTPLTLTCTVSGFSLSSYAMSWVRQAPGKGLEWIGAISTGGSTTYASWAKGRFTISKTSSTTVDLKMTSLTTEDTATYFCVRHFRLWGPGTLVTISS
VL: QVLTQTPSSVSAAVGGTVTIKCQASQSIGSALAWFQQKPGQRPKLLIYRASNLASGVPSRFKGSGSGTEFALTISGVQREDAATYYCLGGAAAVWAFGAGTNVEIKR
notes: as for B1
B4: HW-42 chimeric rabbit-human IgG1 LA/LA/PG (antibody, V domains shown)
VH: QSVKESEGGLFKPADTLTLTCTVSGFSLSSNEISWVRQAPGEGLEYIGIIDTGGRAYYAVWARSRSTITRNTNLNTVTLKMTSLTAADTATYFCARGGVDTEWYAFSSWGPGTLVTVPS
VL: SFVLTQPASVQVNLGQTVSLTCTADTLSRRYASWYQQKPGQAPVLLIFRDTSRPSGVPDRFSGSSSGDTATLTISGAQAGDEADYYCATSDGSGSNYQYVFGGGTQLTVTG
notes: Fc-silenced (L234A/L235A/P329G) IgG1, lambda; Alexa Fluor 647-labeled in single-step flow cytometry; Cluster C-1
B5: HW-113 chimeric rabbit-human IgG1 LA/LA/PG (antibody, V domains shown)
VH: QKQLVESGGGLVQPGGSLTLTCTVSGFSLNKYYMGWFRQAPGKGLEWIGVISRSGDTYYSSWAKGRFTISKASTTVDLRITSPTTEDTATYFCARDASSPGFHGDRLDLWGQGTLVTVSS
VL: B4 VL with R30S, F48Y, D68N, S93I, Q98L, Y99W
notes: Fc-silenced (L234A/L235A/P329G) IgG1, lambda; Alexa Fluor 647-labeled in single-step flow cytometry
B6: HW-1 chimeric rabbit-human IgG1 LA/LA/PG (antibody, V domains shown)
VH: QSLEESGGGLFKPTDTLTLTCTASGFSLGSSYAISWVRQAPGKELEWIGTIDSGRAYYARWAKSRSTITRNTNENTVTLKMTSLTAADTATYFCARDLIPTYSQDIWGPGTLVTISS
VL: B4 VL with F48Y, D68N, S95N, N96S, G111S
notes: Fc-silenced (L234A/L235A/P329G) IgG1, lambda; Alexa Fluor 647-labeled in single-step flow cytometry; Prototype of cluster C-1
B7: HW-97 chimeric rabbit-human IgG1 LA/LA/PG (antibody, V domains shown)
VH: QKQLVESGGRLVTPGTPLTLTCTVTGIDLSSHGMSWVRQAPGKGLEWIGVIYPSGSTWYASWARGRFTISKTSTTVDLKMTSLTTEDTATHFCARGDVGGADNNIWGPGTLVTVSS
VL: B4 VL with N13D, D25E, R30S, F48Y, D68N, N96S
notes: Fc-silenced (L234A/L235A/P329G) IgG1, lambda; Alexa Fluor 647-labeled in single-step flow cytometry; Prototype of cluster C-97
B8: HW-25 chimeric rabbit-human IgG1 LA/LA/PG (antibody, V domains shown)
VH: QSLEESGGRLVTPGTPLTLTCTVSGFSLSSYAMGWVRQAPGKGLEWIGIIDSRGSTYYATWAKGRFTISKTSTTVDLKITSPTTEDTATYFCAREDSYYYDSFNLWGPGTLVTVSS
VL: B4 VL with F48Y, D68N, N96S, Y99C
notes: as for B4
B9: HW-45 chimeric rabbit-human IgG1 LA/LA/PG (antibody, V domains shown)
VH: QKQLVESGGRLVTPGTPLTLTCTVSGFSLSSYAMGWFRQAPGKGLEWIGIINSYGSTYYASWAKGRFTISKTSTTVDLKITSPTTEDTATYFCGRRIGSARFDPWGPGTLVTVSS
VL: B4 VL with R30S, F48Y, S52R, D68N, N96S, Q98R, Y99L
notes: Fc-silenced (L234A/L235A/P329G) IgG1, lambda; Alexa Fluor 647-labeled in single-step flow cytometry; Prototype of cluster C-45
B10: HW-17 chimeric rabbit-human IgG1 LA/LA/PG (antibody, V domains shown)
VH: QSLGESRGRLVTPDETLTLTCTVSGIDLSSNAMSWVRQAPGEGLEWIGTINTGGRAYYASWAKGRFTISRTSTTVDLKMTSLTTEDTATYFCARERYSDGRAYDIWGPGTLVTISS
VL: B4 VL with F48Y, R49T, T51S, S52N, V57I, D68N, S90D, N96I
notes: as for B4
B11: HW-70 chimeric rabbit-human IgG1 LA/LA/PG (antibody, V domains shown)
VH: QSLEESGGRLVTPGTPLTLTCTVSGFSLSSNAMSWVRQAPGKGLEWIGTIDGYGYTYYASWAKGRFTVSKTSTTVDLKITSPTTEDTATYFCAREIYLGSNFWGPGTLVTISS
VL: B4 VL with F48Y, D68N, S90A, N96S, Y99F
notes: as for B4
B12: HW-28 chimeric rabbit-human IgG1 LA/LA/PG (antibody, V domains shown)
VH: QKQLVESGGRLVTPGTPLTLTCTASGFSLSSNAMSWVRQAPGEGLQWIGTISSGGSTYYASWAKGRFTISKTSTTVTLKMTSLTTEDTATYFCARGADLHRLWGPGTLVTVSS
VL: B4 VL with A24G, D25K, T26P, R30S, Y31F, L46V, F48Y, D68N, N96S
notes: as for B2
B13: HW-56 chimeric rabbit-human IgG1 LA/LA/PG (antibody, V domains shown)
VH: QSVKESEGGLFKPTDTLTLTCTASGFTVSTNAVTWVRQAPGNGLEYIGTIGRSGSAYFASWAKRRSTLTRDINLNTVTLKMTSLTAADTATYFCVRGSPGYRTAISIWGPGTLVTISS
VL: AVMTQTPSSTSAAVEGTVTINCQASQSISNRLSWFQQKPGQPPKLLIYQASTLASGVPSRFKGSGSGTEFTLTISGVQREDAATYYCLGSYSSSDASFGGGTKLEIKR
notes: as for B1

Experiments:
[1] = molecular target: T1, GARS, endogenous in H929 multiple …; assay: flow cytometry, H929 + CDH18 siRNA; None 0.19; surface target GARS putative
[2] = molecular target: T1, GARS, endogenous in H929 multiple …; assay: flow cytometry, H929 + NT Green siRNA; None 416; surface target GARS putative
SELL (L-Selectin) = molecular target: T2, SELL (L-Selectin); assay: ELISA on coated SELL-Fc-His
Protocol: Recombinant purified ECDs (50-150 ng) of each putative target protein were coated, incubated with 150 ng of the indicated primary antibody, and binding was detected using a peroxidase-conjugated anti-human Fab secondary antibody. Heatmap represents averages of technical triplicates. (8B) Target validation via siRNA knockdown. H929 cells were transfected with siRNA pools targeting the putative antibody targets ICAM1, CADM1, and PTPRG. Cells were then subjected to cognate IgG binding analysis via flow cytometry. (NT, non-targeting siRNA).
ELISA ELISA was conducted as described previously. Briefly, 50-150 ng of antigen was coated overnight in half-area 96-well plates at 4° C., blocked with 3% BSA at 37° C. for 1 h, and 150 ng of chimeric rabbit/human IgG1 was added, incubating for 2 h at 37° C. […] After incubating at 37° C. for 15 min-1 h (depending on intensity of controls), data were acquired using a SpectraMax M5 plate reader (Molecular Devices).

[3] = molecular target: T4, PTPRG, endogenous in H929 multiple myeloma cells (human, UniProt P23470 20-1445); assay: flow cytometry, H929 + vehicle; None 2.74
T4 construct: Native protein on H929 cells (flow cytometry, siRNA knockdown) and in H929 lysates (IP/MS); also called phosphatase receptor type γ

[4] = molecular target: T4, PTPRG, endogenous in H929 multiple …; assay: flow cytometry, H929 + PTPRG siRNA (target knocked down); None 490
[5] = molecular target: T3, CADM1, endogenous in H929 multiple …; assay: flow cytometry, H929 + NT Green siRNA; None 1.35

T4 sequence (P23470 20-1445 limits assumed): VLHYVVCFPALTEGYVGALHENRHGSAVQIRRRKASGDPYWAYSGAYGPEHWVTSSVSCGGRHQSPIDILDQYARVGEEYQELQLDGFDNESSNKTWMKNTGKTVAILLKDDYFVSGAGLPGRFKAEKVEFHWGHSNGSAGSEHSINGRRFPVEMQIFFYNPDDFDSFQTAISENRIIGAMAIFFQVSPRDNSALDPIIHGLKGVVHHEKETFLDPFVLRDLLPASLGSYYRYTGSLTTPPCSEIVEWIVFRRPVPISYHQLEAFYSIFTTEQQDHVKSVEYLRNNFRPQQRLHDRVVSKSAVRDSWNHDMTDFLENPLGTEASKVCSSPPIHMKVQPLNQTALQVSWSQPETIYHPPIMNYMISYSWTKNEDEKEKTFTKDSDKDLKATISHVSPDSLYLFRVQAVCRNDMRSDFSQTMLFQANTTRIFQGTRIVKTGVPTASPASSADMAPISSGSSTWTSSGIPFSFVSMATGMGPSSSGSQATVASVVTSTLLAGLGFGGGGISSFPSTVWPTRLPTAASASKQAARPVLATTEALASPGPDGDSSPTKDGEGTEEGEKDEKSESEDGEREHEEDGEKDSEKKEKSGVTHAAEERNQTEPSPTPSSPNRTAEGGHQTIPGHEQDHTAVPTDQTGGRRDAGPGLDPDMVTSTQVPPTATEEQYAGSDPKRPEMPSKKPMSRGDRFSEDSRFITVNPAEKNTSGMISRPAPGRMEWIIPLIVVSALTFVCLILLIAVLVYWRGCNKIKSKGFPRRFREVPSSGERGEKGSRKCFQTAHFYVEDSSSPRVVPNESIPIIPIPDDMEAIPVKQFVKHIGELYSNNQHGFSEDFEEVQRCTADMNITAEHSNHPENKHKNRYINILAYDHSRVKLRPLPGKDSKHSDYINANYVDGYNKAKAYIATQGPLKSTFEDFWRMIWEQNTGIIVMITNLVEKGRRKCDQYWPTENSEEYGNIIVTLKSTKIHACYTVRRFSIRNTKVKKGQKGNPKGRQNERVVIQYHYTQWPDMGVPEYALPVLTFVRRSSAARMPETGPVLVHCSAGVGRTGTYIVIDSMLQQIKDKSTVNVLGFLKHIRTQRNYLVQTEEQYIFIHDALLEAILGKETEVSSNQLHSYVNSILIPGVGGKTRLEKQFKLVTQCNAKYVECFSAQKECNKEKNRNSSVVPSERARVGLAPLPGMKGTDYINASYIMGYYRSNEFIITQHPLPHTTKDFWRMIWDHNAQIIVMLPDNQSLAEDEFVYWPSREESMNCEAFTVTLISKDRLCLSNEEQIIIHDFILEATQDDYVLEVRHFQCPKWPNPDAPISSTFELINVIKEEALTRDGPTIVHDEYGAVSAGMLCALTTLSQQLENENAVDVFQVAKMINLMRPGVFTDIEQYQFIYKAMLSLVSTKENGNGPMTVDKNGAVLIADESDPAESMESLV

Binder	Cells stained (%) [1]	mAb binding (MFI) [2]	binding result (SELL (L-Selectin))	Cells stained (%) [3]	mAb binding (MFI) [4]	Cells stained (%) [5]
B1	98.6%	59500				
B2	99.3%	693000	no binding (tested: 150 ng IgG1 per well)			
B3	99.4%	15500	no binding (tested: 150 ng IgG1 per well)			
B4			no binding (tested: 150 ng IgG1 per well)	97.5%	649	
B5			no binding (tested: 150 ng IgG1 per well)			
B6			no binding (tested: 150 ng IgG1 per well)	99.4%	1140	
B7			no binding (tested: 150 ng IgG1 per well)			98.1%
B8			no binding (tested: 150 ng IgG1 per well)	97.2%	839	
B9	99.4%	29500				
B10			no binding (tested: 150 ng IgG1 per well)	99.3%	1160	
B11			no binding (tested: 150 ng IgG1 per well)	98.6%	840	
B12	99.4%	50700				
B13	99.9%	499000				
